Columns and labels:
[1] = target: T1, recombinant wild-type murine Factor XII (Mu-FXII) with C-terminal 8xHis-tag (mouse, UniProt Q80YC5 20-597); assay: Western blot, non-reducing
T1 construct: cDNA of the entire Mu-FXII protein (GenBank NM_021489) expressed in Freestyle 293 cells, culture supernatant used; also called recombinant murine FXII; wild-type Mu-FXII
T1 sequence: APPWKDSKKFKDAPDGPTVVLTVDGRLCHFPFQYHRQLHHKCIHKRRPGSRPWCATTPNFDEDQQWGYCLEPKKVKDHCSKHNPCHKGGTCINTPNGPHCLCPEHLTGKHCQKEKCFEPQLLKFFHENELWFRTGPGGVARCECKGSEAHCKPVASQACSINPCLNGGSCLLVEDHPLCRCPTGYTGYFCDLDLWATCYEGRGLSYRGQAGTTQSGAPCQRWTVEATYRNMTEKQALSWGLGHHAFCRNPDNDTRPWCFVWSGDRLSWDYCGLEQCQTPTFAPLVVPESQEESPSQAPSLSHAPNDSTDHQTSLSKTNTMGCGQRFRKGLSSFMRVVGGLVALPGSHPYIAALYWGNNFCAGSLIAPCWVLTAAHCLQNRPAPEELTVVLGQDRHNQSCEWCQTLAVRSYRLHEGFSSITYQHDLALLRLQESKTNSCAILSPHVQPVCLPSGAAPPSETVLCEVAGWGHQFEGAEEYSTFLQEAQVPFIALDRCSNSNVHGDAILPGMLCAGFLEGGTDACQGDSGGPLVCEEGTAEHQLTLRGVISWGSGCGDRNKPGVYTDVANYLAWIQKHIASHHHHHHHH
Procedure: (§1) Proteins were then transferred electrophoretically onto nitrocellulose filters and blocked for 1 hour in 5% Milk powder in Tris-buffered saline with 0.05% Tween-20 (TTBS). Filters were then incubated for 1 hour with either 3F7 mAb or an anti-His mAb 3H3 (both at […] in TTBS with 5% Milk powder), washed thoroughly with TTBS, then incubated for a further hour with anti-human IgG-FITC or anti-mouse IgG-FITC, respectively (Millipore, USA; both at 0.25 mg/ml in TTBS with 5% Milk powder). Following further washing of membranes in TTBS, Ab-FITC bound proteins were visualized using a Typhoon variable mode analyzer (GE Healthcare, USA).

[2] = target: T2, Mu-FXII I438A mutant with C-terminal 8xHis-tag (mouse, UniProt Q80YC5 20-597); assay: Western blot, non-reducing, 3F7 mAb detected with anti-human IgG-FITC
T2 construct: Culture supernatant; also called mutant f) I438A
T2 sequence: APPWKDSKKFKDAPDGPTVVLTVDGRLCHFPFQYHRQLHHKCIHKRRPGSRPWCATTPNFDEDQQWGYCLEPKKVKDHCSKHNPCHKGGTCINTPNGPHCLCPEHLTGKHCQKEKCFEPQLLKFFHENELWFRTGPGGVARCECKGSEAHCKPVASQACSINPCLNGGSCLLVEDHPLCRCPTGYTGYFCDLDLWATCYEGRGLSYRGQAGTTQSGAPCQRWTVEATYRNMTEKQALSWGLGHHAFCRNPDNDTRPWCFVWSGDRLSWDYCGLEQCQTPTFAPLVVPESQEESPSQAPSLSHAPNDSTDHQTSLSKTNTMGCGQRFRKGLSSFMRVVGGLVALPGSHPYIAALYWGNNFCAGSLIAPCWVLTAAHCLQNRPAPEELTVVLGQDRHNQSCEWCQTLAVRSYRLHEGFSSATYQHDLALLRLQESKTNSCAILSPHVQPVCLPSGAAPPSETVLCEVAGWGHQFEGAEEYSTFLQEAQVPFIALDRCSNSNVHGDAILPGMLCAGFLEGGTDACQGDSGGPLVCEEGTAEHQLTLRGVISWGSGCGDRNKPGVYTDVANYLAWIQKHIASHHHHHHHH
Procedure: as §1

[3] = target: T3, Mu-FXII N398K mutant with C-terminal 8xHis-tag (mouse, UniProt Q80YC5 20-597); assay: as above
T3 construct: Mouse to rat residue change; culture supernatant; also called mutant c) N398K
T3 sequence: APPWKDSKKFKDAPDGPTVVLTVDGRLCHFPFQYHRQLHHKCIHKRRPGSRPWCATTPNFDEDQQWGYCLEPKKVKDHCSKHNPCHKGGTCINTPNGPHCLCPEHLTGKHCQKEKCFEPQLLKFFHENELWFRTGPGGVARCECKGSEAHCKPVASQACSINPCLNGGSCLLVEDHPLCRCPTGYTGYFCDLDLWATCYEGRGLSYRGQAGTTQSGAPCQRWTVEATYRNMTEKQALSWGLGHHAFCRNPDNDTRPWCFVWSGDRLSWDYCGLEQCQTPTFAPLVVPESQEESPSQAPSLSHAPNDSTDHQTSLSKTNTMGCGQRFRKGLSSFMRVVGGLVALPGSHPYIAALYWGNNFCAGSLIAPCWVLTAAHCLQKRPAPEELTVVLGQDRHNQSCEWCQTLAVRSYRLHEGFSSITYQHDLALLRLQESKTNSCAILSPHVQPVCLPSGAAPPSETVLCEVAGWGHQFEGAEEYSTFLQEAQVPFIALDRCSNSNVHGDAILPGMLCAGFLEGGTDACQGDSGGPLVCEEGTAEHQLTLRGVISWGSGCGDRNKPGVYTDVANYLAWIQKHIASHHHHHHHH
Procedure: as §1

human FXIIa = target: T4, human FXIIa (human, UniProt P00748 20-615, limits assumed); assay: cell-based or functional assay
T4 sequence: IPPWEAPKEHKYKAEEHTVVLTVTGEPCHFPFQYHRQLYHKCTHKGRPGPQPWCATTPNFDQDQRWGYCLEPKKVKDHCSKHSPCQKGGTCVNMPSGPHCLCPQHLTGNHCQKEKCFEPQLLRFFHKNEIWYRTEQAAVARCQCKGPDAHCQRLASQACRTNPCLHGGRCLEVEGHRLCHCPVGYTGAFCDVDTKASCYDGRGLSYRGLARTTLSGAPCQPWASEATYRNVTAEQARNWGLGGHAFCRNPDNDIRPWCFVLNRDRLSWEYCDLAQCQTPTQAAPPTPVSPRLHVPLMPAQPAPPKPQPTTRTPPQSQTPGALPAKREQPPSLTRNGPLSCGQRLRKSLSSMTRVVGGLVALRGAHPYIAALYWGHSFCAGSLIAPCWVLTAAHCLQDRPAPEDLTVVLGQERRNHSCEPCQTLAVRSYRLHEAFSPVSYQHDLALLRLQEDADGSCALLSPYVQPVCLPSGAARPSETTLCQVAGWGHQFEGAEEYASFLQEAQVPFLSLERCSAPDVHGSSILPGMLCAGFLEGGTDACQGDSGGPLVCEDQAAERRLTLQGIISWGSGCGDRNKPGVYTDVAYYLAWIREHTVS

binding result [1]: binds | binding result [2]: no binding | binding result [3]: no binding | IC50 (read off the curve) (human FXIIa): ~10 nM
B1: monoclonal antibody 3F7 (fully human IgG4/lambda) (antibody, V domains shown)
VH: EVQLLESGGGLVQPGGSLRLSCAASGFTFSKYIMQWVRQAPGKGLEWVSGIRPSGGTTVYADSVKGRFTISRDNSKNTLYLQMNSLRAEDTAVYYCARALPRSGYLISPHYYYYALDVWGQGTTVTVSS
VL: QSELTQPPSASGTPGQRVTISCSGSSSNIGRNYVYWYQQVPGTAPKLLIYSNNQRPSGVPDRFSGSKSGTSASLVISGLRSEDEADYYCAAWDASLRGVFGGGTKLTVLG
notes: also called 3F7 mAb; MAb 3F7
